We go through three molecules from PMC3528108.

Where two headings read alike, the source gives them in different places.

The target of data set [1] is T1, GST-TRF2 (human, UniProt Q15554 1-542). The experiment in a line: ELISA. In general terms: ELISA stands for enzyme-linked immunosorbent assay.
Data set [2] concerns the target T1, GST-TRF2. The experiment in a line: ELISA. The source holds these as a separate data set.

T1 sequence (Q15554 whole entry): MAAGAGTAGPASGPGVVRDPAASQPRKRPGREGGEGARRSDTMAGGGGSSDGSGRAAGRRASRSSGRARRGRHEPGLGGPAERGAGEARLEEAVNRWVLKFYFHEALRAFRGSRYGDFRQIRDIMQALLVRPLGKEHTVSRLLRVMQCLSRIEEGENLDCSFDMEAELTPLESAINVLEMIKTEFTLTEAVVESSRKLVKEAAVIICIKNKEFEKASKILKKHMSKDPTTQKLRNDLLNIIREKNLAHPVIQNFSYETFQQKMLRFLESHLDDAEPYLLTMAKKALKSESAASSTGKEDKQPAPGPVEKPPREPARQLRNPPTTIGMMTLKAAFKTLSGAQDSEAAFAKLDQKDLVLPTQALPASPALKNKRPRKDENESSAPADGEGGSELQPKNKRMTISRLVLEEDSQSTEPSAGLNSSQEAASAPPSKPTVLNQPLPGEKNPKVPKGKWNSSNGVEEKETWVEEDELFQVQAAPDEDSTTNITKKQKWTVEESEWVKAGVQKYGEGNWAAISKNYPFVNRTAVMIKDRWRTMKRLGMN

In the case of AGGGGGCCGUGGGGUGGGAGCUGGGG (structured_RNA) [BCL2 RNA G-quadruplex], the binding result in the data set with GST-TRF2 [1] is reported as “binds”.
On the same count and under the same terms, next, AGGGAGGGGCGGGUCUGGG (structured_RNA) [NRAS RNA G-quadruplex]: “binds”.
As to UUACCGUUACCGUUACCGUUACCG (ssRNA) [TERRA-mut], the binding result with GST-TRF2 [2] is reported as “no binding”.
